Tests used:
[1] = biological target: binding of mGluR1a or mGluR5 to each of the Homer family members; assay: Synthetic peptide block of mGluR1a/mGluR5 binding to Homer family members; details: synthetic 10 mer peptides, read-out: peptide concentration at which approximately half of the binding was blocked
Method: This exquisite sensitivity of Homer binding to changes in single amino acids within the Homer-ligand site was confirmed in other Homer-interacting proteins including mGluR1a (Tu et al., 1998), Shank (Tu et al., 1999), and I42 (see below). To further confirm that the interaction was mediated by a direct interaction at the Homer-ligand site (as opposed to a secondary allosteric effect on a remote binding site), synthetic 10-mer peptides with either the wild type, or F-to-R mutation were prepared. The wild type peptide blocked binding of mGluR1a or mGluR5 to each of the Homer family members (Tu et al., 1998). Approximately half of the binding was blocked at a peptide concentration of 3.4 micromolar.
Mutations of mGluR5 were initially tested in the context of a 250aa C-terminal fragment, but were also determined to have an identical effect on binding when placed in the full length mGluR5 protein (Tu et al., 1998). This exquisite sensitivity of Homer binding to changes in single amino acid within the Homer-ligand site has been confirmed in other Homer-interacting proteins including mGluR1a (Tu et al., 1998), Shank (Tu et al., 1999) and I42 (see below). […] Approximately half of the binding was blocked at a peptide concentration of 3.4 micromolar.

[2] = test system: mGluR-evoked Ca^+2 responses in Purkinje cells; assay: Fura-2 ratio imaging of quisqualate-evoked Ca2+ mobilization in transfected cerebellar Purkinje cells; assay type: cell-based, mouse; details: mean±SEM; transfected Purkinje cells, quisqualate micropressure pulse, Ca^+2-free external saline
Text: The truncated Homer protein used lacks the coiled-coil domain and is unable to form a bridge linking the mGluR at the cell surface with intracellular inositol trisphosphate receptors. The truncated form of Homer protein resembled Homer 1a with the exception of 11 residues at the carboxy-terminal. This form of Homer results in enhanced expression of Homer protein as compared with transfection of Homer 1a in heterologous cells. The Homer protein was introduced into Purkinje cells in primary cerebellar cultures and glutamate induced effects on calcium mobilization was measured.
Embryonic mouse cerebellar cultures were prepared and maintained according to the method of Schilling et al. (Schilling et al., Neuron 7:891 1991). At 4-5 DIV, cultures were transfected with plasmids coding for E-GFP (Clontech) and either full-length Homer 1b or an IEG form of Homer 1. The IEG form of Homer 1 was a 186 amino acid amino-terminal fragment of Homer 1b. Plasmids were purified by cesium banding. Three combinations of the plasmids were transfected. Group I (control), 20 Tg of E-GFP and 40 Tg of pRK5 vector; group II, 20 Tg of E-GFP and 40 Tg of pRK5 Homer 1 IEG; group III: 20 Tg of E-GFP and 40 Tg of pRK5 Homer 1b. Plasmid DNA was mixed with gold particles (0.6 micron), and coated onto plastic tubing. DNA was then ballistically transfected into cells according to the manufacturer's protocol (Helios Gene Gun System, BIO-RAD). After transfection, cultures were returned to the incubator and maintained for an additional […] for a total of 7-8 DIV at the time of use for imaging experiments.
Patch electrodes were attached to the somata of GFP-expressing Purkinje cells and a holding potential of −60 mV was applied. Micropressure electrodes (1 Tm tip diameter) were filled with quisqualate (100 Tm in external saline) and were positioned ˜20 Tm away from large-caliber dendrites. Test pulses were delivered using positive pressure (6 psi, 1 sec). Cells were bathed in a solution that contained (in mM) NaCl (140), KCl (5), EGTA (0.2), MgCl2 (0.8), HEPES (10), glucose (10), tetrodotoxin (0.005), and picrotoxin (0.1), adjusted to pH 7.35 with NaOH, which flowed at a rate of 0.5 ml/m The recording electrode contained CsCl (135), HEPES (10), fura-2 K5 salt (0.2), and Na2-ATP (4), adjusted to pH 7.35 with CSOH. Patch electrodes yielded a resistance of 3-5 MA when measured with the internal and external salines described above.
Fura-2 ratio imaging of intracellular free Ca^2+, was accomplished by measuring the background corrected fluorescence ratio at 340 and 380 nm excitation using a cooled CCD camera system, as previously described (Linden et al., J Neurosci 15:5098 1995). Exposure times were 200 msec per single wavelength image. Experiments were conducted at room temperature. Enhanced GFP is weakly excited by illumination in the 380-400 nm spectrum. Based upon the bandpass characteristics of our 340HT15 and 380HT10 excitation filters and the absorption spectrum of enhanced GFP (Clontech), we estimate that <1% of the signal at 340 nm excitation and <5% of the signal at 380 nm excitation is contributed by GFP, even in those cells where the fura/GFP loading ratio is smallest. This could lead to a small (<5%) systemic underestimation of free calcium concentration that should distribute randomly across experimental groups.
Calcium mobilization in the absence of influx was measure by ratio imaging fura-2 in Purkinje cells bathed in Ca^+2-free external saline and stimulated with a micropressure pulse of quisqualate, a metabotropic glutamate receptor agonist (Linden, Neuron 17:483 1996). […] The decay phase of the Ca^+2 response appeared somewhat slower in neurons transfected with the truncated form. […]

IC50 [1] [µM]	Molecule	mGluR-evoked Ca^+2 response amplitude [2] [nM]	mGluR-evoked Ca^+2 response latency [2] [s]
~3.4	synthetic 10 mer peptide with the wild type Homer-ligand site; possibly SEQ ID NO:14 ALTPPSPFRD (extended region for peptide binding) [wild type peptide]	–	–
–	Homer 1b: full-length Homer 1b expressed from pRK5 plasmid in Purkinje cells (protein, listed as Homo sapiens) MGEQPIFSTRAHVFQIDPNTKKNWVPTSKHAVTVSYFYDSTRNVYRIISLDGSKAIINSTITPNMTFTKTSQKFGQWADSRANTVYGLGFSSEHHLSKFAEKFQEFKEAARLAKEKSQEKMELTSTPSQESAGGDLQSPLTPESINGTDDERTPDVTQNSEPRAEPTQNALPFSHSSAISKHWEAELATLKGNNAKLTAALLESTANVKQWKQQLAAYQEEAERLHKRVTELECVSSQANAVHTHKTELNQTIQELEETLKLKEEEIERLKQEIDNARELQEQRDSLTQKLQEVEIRNKDLEGQLSDLEQRLEKSQNEQEAFRNNLKTLLEILDGKIFELTELRDNLAKLLECS	244 ± 17	4.2 ± 0.9
–	truncated form of Homer: 186 amino acid amino-terminal fragment of Homer 1b, lacks the coiled-coil domain, expressed by transfection (protein, left off: small tags and cut ends, 186 amino acid amino-terminal fragment of Homer 1b, lacks the coiled-coil domain, expressed by transfection) MGEQPIFSTRAHVFQIDPNTKKNWVPTSKHAVTVSYFYDSTRNVYRIISLDGSKAIINSTITPNMTFTKTSQKFGQWADSRANTVYGLGFSSEHHLSKFAEKFQEFKEAARLAKEKSQEKMELTSTPSQESAGGDLQSPLTPESINGTDDERTPDVTQNSEPRAEPTQNALPFPHSSAISKHWEAE	170 ± 9	10.5 ± 1.8

From US7378498B2, “Protein encoded by a nucleic acid” (The Johns Hopkins University School of Medicine, priority 1998, dated 2008)
